# In patent publication US20170313764A1 (ACADEMISCH MEDISCH CENTRUM, published 2017):
# Key:
# Assay in all cases: ELISA, GNA-captured E1E2 lysate; EC50 wild type / EC50 mutant
# [1] = biological target: E1E2 of HCV isolate H77 with single mutation Y527A (Hepatitis C virus genotype 1a, strain …, UniProt P27958 192-383; P27958 384-746)
# [2] = biological target: E1E2 of HCV isolate H77 with single mutation A439G (Hepatitis C virus genotype 1a, strain …, UniProt P27958 192-383; P27958 384-746)
# [3] = biological target: E1E2 of HCV isolate H77 with single mutation P664A (Hepatitis C virus genotype 1a, strain …, UniProt P27958 192-383; P27958 384-746)
# [4] = biological target: E1E2 of HCV isolate H77 with single mutation N532A (Hepatitis C virus genotype 1a, strain …, UniProt P27958 192-383; P27958 384-746)
# [5] = biological target: E1E2 of HCV isolate H77 with single mutation D698A (Hepatitis C virus genotype 1a, strain …, UniProt P27958 192-383; P27958 384-746)
# [6] = biological target: E1E2 of HCV isolate H77 with single mutation D533A (Hepatitis C virus genotype 1a, strain …, UniProt P27958 192-383; P27958 384-746)
# [7] = biological target: E1E2 of HCV isolate H77 with single mutation N448A (Hepatitis C virus genotype 1a, strain …, UniProt P27958 192-383; P27958 384-746)
# [8] = biological target: E1E2 of HCV isolate H77 with single mutation P676A (Hepatitis C virus genotype 1a, strain …, UniProt P27958 192-383; P27958 384-746)
# [9] = biological target: E1E2 of HCV isolate H77 with single mutation N423A (Hepatitis C virus genotype 1a, strain …, UniProt P27958 192-383; P27958 384-746)
# [10] = biological target: E1E2 of HCV isolate H77 with single mutation T534A (Hepatitis C virus genotype 1a, strain …, UniProt P27958 192-383; P27958 384-746)
# [11] = biological target: E1E2 of HCV isolate H77 with single mutation V538A (Hepatitis C virus genotype 1a, strain …, UniProt P27958 192-383; P27958 384-746)
# [12] = biological target: E1E2 of HCV isolate H77 with single mutation D535A (Hepatitis C virus genotype 1a, strain …, UniProt P27958 192-383; P27958 384-746)
# [13] = biological target: E1E2 of HCV isolate H77 with single mutation N415A (Hepatitis C virus genotype 1a, strain …, UniProt P27958 192-383; P27958 384-746)
# [14] = biological target: E1E2 of HCV isolate H77 with single mutation R657A (Hepatitis C virus genotype 1a, strain …, UniProt P27958 192-383; P27958 384-746)
# [15] = biological target: E1E2 of HCV isolate H77 with single mutation W616A (Hepatitis C virus genotype 1a, strain …, UniProt P27958 192-383; P27958 384-746)
# [16] = biological target: E1E2 of HCV isolate H77 with single mutation T435A (Hepatitis C virus genotype 1a, strain …, UniProt P27958 192-383; P27958 384-746)
# [17] = biological target: E1E2 of HCV isolate H77 with single mutation W420A (Hepatitis C virus genotype 1a, strain …, UniProt P27958 192-383; P27958 384-746)
# [18] = biological target: E1E2 of HCV isolate H77 with single mutation P612A (Hepatitis C virus genotype 1a, strain …, UniProt P27958 192-383; P27958 384-746)
# [19] = biological target: E1E2 of HCV isolate H77 with single mutation Y443A (Hepatitis C virus genotype 1a, strain …, UniProt P27958 192-383; P27958 384-746)
# [20] = biological target: E1E2 of HCV isolate H77 with single mutation L413A (Hepatitis C virus genotype 1a, strain …, UniProt P27958 192-383; P27958 384-746)
# [21] = biological target: E1E2 of HCV isolate H77 with single mutation G418A (Hepatitis C virus genotype 1a, strain …, UniProt P27958 192-383; P27958 384-746)
Binder,"relative binding, mutant vs wild type [1]","relative binding, mutant vs wild type [2]","relative binding, mutant vs wild type [3]","relative binding, mutant vs wild type [4]","relative binding, mutant vs wild type [5]","relative binding, mutant vs wild type [6]","relative binding, mutant vs wild type [7]","relative binding, mutant vs wild type [8]","relative binding, mutant vs wild type [9]","relative binding, mutant vs wild type [10]","relative binding, mutant vs wild type [11]","relative binding, mutant vs wild type [12]","relative binding, mutant vs wild type [13]","relative binding, mutant vs wild type [14]","relative binding, mutant vs wild type [15]","relative binding, mutant vs wild type [16]","relative binding, mutant vs wild type [17]","relative binding, mutant vs wild type [18]","relative binding, mutant vs wild type [19]","relative binding, mutant vs wild type [20]",other results
"AT15-009 (antibody, V domains shown) VH: QVLLVQSGAEVKKPGSSVKVSCKASGGTFSTYAISWLRQAPGQGPEWMGGIVPMFGITNYAQHFQGRITITADKSTSTAYMELSSLGSEDTAVYFCARDLRSGGTFFSRGFDLWGPGTKVTVSS VL: EIVLTQSPGTLSLSPGERATLSCRASQSVSSSFLTWYQQKPGQAPRLLIFDASTRATGVPDRFSGSGSGTDFTLTISRLEPEDFGVYYCQQFDSSPTFGGGTKVEIK",84%,97%,101%,118%,116%,94%,113%,102%,111%,93%,126%,55%,116%,123%,29%,101%,102%,94%,64%,112%,"relative binding, mutant vs wild type [21]: 112%"
"AT15-012 (antibody, V domains shown, also called AT15-12) VH: QVQLVQSGAEVKKPGSSVKVSCKASGGNFNIFPITWVRQAPGQGLEWMGEIIPMLGTPEYAQKFQGRVTITADKSTGTAFMELSSLRSEDTAVYYCARTETTLPGTLFFVYYFHFWGQGTPVTVSS VL: EIVMTQSPVTLSVSPGERAILSCRASQSVSSSLAWYQQKPGQAPRLLIYGASTRATGVPARFSGSGSGTEFTLTISSVQSEDYAIYFCQQYNDRPPWTFGQGTKVEIK",76%,94%,83%,125%,117%,82%,129%,92%,132%,95%,103%,52%,101%,138%,71%,99%,111%,81%,103%,132%,"relative binding, mutant vs wild type [21]: 124%"
